Residue numbers refer to the chain shown, from its start. Names may count otherwise.
T1: IFNλR1 (UniProt Q8IU57 21-228)
T1 sequence (looked up): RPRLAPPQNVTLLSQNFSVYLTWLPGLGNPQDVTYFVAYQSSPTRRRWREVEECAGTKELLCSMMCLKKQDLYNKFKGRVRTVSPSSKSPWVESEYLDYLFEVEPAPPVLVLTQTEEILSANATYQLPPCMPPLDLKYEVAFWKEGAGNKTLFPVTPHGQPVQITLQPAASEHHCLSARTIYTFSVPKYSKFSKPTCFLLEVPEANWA

T2: IL10Rβ (UniProt Q08334 20-220)
T2 sequence (looked up): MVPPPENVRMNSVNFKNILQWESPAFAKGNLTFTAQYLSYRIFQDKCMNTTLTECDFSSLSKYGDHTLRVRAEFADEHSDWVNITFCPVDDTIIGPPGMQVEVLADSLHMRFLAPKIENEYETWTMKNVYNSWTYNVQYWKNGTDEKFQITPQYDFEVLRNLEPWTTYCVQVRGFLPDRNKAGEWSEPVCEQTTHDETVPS

B1: IFNλ4 variant M1 (L28N) (ligand, human, UniProt K9M1U5 22-179, looked up)
chain: AAPRRCNLSHYRSLEPRTLAAAKALRDRYEEEALSWGQRNCSFRPRRDPPRPSSCARLRHVARGIADAQAVLSGLHRSELLPGAGPILELLAAAGRDVAACLELARPGSSRKVPGAQKRRHKPRRADSPRCRKASVVFNLLRLLTWELRLAAHSGPCL
modifications: biotinylated (site not stated) for BLI; N-glycan at N61; mutated L28N not glycosylated
B2: IFNλ4 variant M3 (P73N) (ligand, human, UniProt K9M1U5 22-179, looked up)
chain: B1 chain with N7L, P52N
modifications: biotinylated (site not stated) for BLI; N-glycans at N61 and at mutated P73N
B3: IFNλ4 variant M7 (L28N + P73N) (ligand, human, UniProt K9M1U5 22-179, looked up)
chain: B1 chain with P52N
modifications: biotinylated (site not stated) for BLI; N-glycans at N61 and at mutated P73N; mutated L28N not glycosylated
B4: IFNλ4 WT purified from E. coli (eIFNλ4) (ligand, human, UniProt K9M1U5 22-179, looked up)
chain: B1 chain with N7L
modifications: biotinylated (site not stated) for BLI

Target: T1, IFNλR1
Assay: BLI

Row | Kd [nM] | Binder
1 | 14 | B1
2 | 22 | B2
3 | 17 | B3
4 | 19 | B4

Target: T2, IL10Rβ
Assay: BLI

Row | Kd [nM] | Binder
5 | 49 | B1
6 | 51 | B2
7 | 49 | B3
8 | 71 | B4

Source: publication PMC7129780 (Cytokine, 2019)
